These results are taken from the DeepSol protein solubility set.

This data set is described as follows: soluble on expression in E. coli; label from the status in PepcDB or PDB records.
With “GMEWQAEQAYNHLPPLPLDSKLAELAETLPILKACIPARAALAELKQAGELLPNQGLLINLLPLLEAQGSSEIENIVTTTDKLFQYAQEDSQADPMTKEALRYRTALYQCFTQLSNRPLCVTTALEICSTIKSVQMDVRKVPGTSLTNQATGEVIYTPPAGESVIRDLLSNWEAFLHNQDDVDPLIKMAMAHYQFEAIHPFIDGNGRTGRVLNILYLIDQQLLSAPILYLSRYIVAHKQDYYRLLLNVTTQQEWQPWIIFILNAVEQTAKWTTHKIAAARELIAHTTEYVRQQLPKIYSHELVQVIFEQPYCRIQNLVESGLAKRQTASVYLKQLCDIGVLEEVQSGKEKLFVHPKFVTLMTKDSNQFSRYAL”, the “soluble on expression in E. coli” value is on record as “soluble”.

Turning to “MDTKVVPKISEKICEKFANIINKKPQKKGKEYKIGVDLGTANVVVAVLNENNEPVAGAMKSAQVVKDGVVVDFVGAKEIVKRMVDFLNEELEGKLRVAACAIPPGTGEGVSKATKYVVEEAGLEVIKVVDEPTAAAKLLEIMDGIVVDIGGGTTGISVLKDGKVVYVADEPTGGTHFTLVLAGHFNISFEEAEKIKLDVQRQKLLTPILKPCMEKVAEIIKRHTFSFDNIDTIYLVGGASALHGLKEVVENTTRKKVIVPQYPIFITPLGIALSCEKG”, the “soluble on expression in E. coli” value is “not soluble”.

As to “TEERLKEIEAKYDEIAKDWPKKVKHVLHEEHELELTRVQVYTCDKCEEEGTIWSYHCDECDFDLHAKCALNEDTKE”, the “soluble on expression in E. coli” value is given as “soluble”.

For the sequence “MSSRPPFGIVKPSKPTGNPSSGSSDLDSTAEPSPHERRMDSQRASSGSDVHGHPSLGSQSHNLTSAQSEGRNAHKDLHERHVHPSQGYQRHGSKAPAHGHPSSQGARRSQHELSNFPKLLANLMQDTKATASASCASNQDTLQPTASTMSDGEPEEDKVKLCGNRLEVGVTDNLAGTQRRKEQQQLQGAQAKNDIIYTLSTDNSILDIDHQPKREIAFTHSLLNISKIVNRMIPIRCSMFPGKSWKDPNNLKRPSIAKVHRTNHANELRTARFKANEKCYLLSVCQLISLKNPTFQGLSDSLNSPGDKKVAAEKHTCEDRTRRPTFPLDAFCSTPNEQYETMLLIAKSRTLSARMNVKMLHFPLGLLALEFDGIDSDMPNPDFHDNVLGYRDPHTTTPDSSSDHAAANLPPGRTRDYIPRKAKAPYINYVHSLSVMVEPLPSPPECCHLGSAEPVRPNFADIGAWSGSPTNPQSPSA”, the “soluble on expression in E. coli” value is given as “not soluble”.

Take “MHLDRQSLEKAKHLIQSGLIDTIEVGTIKGLQEIHRFLFEGLYEFAGKIRDKNIAKGNFRFANCLYLDLILPRIESMPQNNFNQIVEKYVEMNIAHPFLEGNGRATRIWLDLLLKKELKKIVLWDRIDKAAYLSAMERSPVNDLEIKTLLKKHLSSNTNDPLTLIKGITQSYYYEGLLEHHHHHH”: the “soluble on expression in E. coli” value is listed as “not soluble”.

Take “MLTMSKAVESLQRFLMPKAGEPHDVRMLYLIESEHNNGRAMWNDRHSVAISAGDEVSFQTYFNAFPASYWRRWTQLDNVILRVEVTGTARVDVFRTKIDGASYAEQGQVVSDGVVEFDLSLAPFEDGGWLWFYVTAETDVTFKAGWYAPQAPQPQVMPDGSQVGPFDKRVTVGIPTFNRPTDAVAALTALSEDPEVDAVIDAVIMPDQGNKHPADEPGYKEATEHFGDRFFEFRQGNLGGSGGYSRIMYEALGGVDGTKPAGAAQSPYILYMDDDIAIEPDSVLRALQVARYAKSPILVGGQMLSLQERSHLHSMGEVVDRNIFMWTSAPFVHYDHDFAKYPLSDRPSPDAPSDRPKTEDLHRRIDVDYNGWWMCMIPRVVAEQIGQPLPLFIKWDDAEYGLRAGNAGFATATWPGVAIWHLAWSDKDDAIDWQAYFHLRNRLIVGAIENGNPAGMVRSMQKATLKHLLCLEYSTVAVQNEAMKDFLAGPSHLFDILETSLPHINALRKNYSDAVVLPSAADLPRPSGAPGVPTVYNLSGPLAPVKKVGWLLKGIKHTLSKENPQHHDVPQANLAPINARWFSLSRLDGATVSTADGRGVVYRKRDRAQAKELLQESYRLQKEVAANFDRLREEYRAAHKELTSREAWAKIFEEPQGAEES”: the “soluble on expression in E. coli” value was “not soluble”.

As for “MGSDKIHHHHHHNYENINSNPYEAPDLSADGYALGSAMNNLAGCVVSPDVNTAQFTDCLLGGPLGGYFADSNAGFTETISNFNPKDDWSRVFLKSDKIIPTLYSNLTQVKLVSQNTNDPVPYAIAQVIKVAAMHRVTDAFGPIPYSQIGANGEIATPYDSQEVTYNTFFDELNAAIATLNENSNEQLVPTADYIYKGDVKKWIRFANSLKLRLAIRIAYANPVKAQQMAEEAVNPANGGVIESNADNATWNYFETSQNPIYVATRYNQVQTSDHGGVPCLTGGDTHAAADIICYMNGYKDNRREKFFTKSEWAGQDYVGMRRGIVIPELKTTGHKYSGVNIAPTSPLYWMNAAEVAFLRAEGQAVFNFSMGGTAESFYNQGIRLSFEQWGADGVEDYLKDDVNKPTAYTDPAGTNTYQNALSNITIKWNDSADKEEKQERIIVQKWIANWQLGNEAWADFRRTGYPKLIPVKENKSGGVVDSEKGARRMPYPLDEFVSNKANVEYAIANYLHGADNMATDVWWASKK”, the “soluble on expression in E. coli” value is recorded as “not soluble”.

Turning to “MSSLWLDQARGSEPACPALQGATRADVCIVGGGYTGLWTALQLREQSPGLDIVLLEAQECGAGASGRNGGFMLSWAAKFETLLKVCGTDEALRLLGESERIAADVAGYLKRHGVDAQLRQDGWLWTASNAAQVDSWMPCIELLARHGQQAFVALPADEVRRLSGSAAHLAGVLSRSSATVHPGMYVRGLRRIALAKGIRIYEHTPMRSLRARPQPTVATARGEVRAAKVVLAMNAWSTRFRELNKGVVVVGSDLVATAPHPEALEKIGLTSGVAISDSRLFTNYYRNTCAGEMVFGRGGGDFAFNGAVGRLYEGPSRFAREVAAILHRFYPALAPLGIVRSWSGPIDRSMDGLPCFGHLGGHPDIVYGYGYSGNGVGPTYLGGKFLASMVLENDDAWRHSALARGLRGRFPPEPFRYVGSRVVKAALVRKEAAEDQGQAPARLDTMLAGLAPGGLVPVARKEKALEHHHHHH”, the “soluble on expression in E. coli” value is given as “not soluble”.

In the case of “MSLTREVGQRREAEETAHKLAHTDPLTGCLNRRSMGPAVEQMVSTARTSGHEVVVMMMDLDNFKRSNDVHGHQAGDAVLLHTADRIRAILPAGSIIARLGGDEFACAAIFDPDHVESIDRLILRMNEAVAMPVRVDGLMLEVTASIGLAATSAADAGAPPALADTLLHRADLAMYQAKKAGRNRYCWFEQNMESELRFRSELEREIREGVARGEFVPYYEKQIDLETGELTGFEMLARWRSPRHGLLSPEIFIPIAEEIGLISELSENLIRQALRDARDWDPTLTLSVNISPIQLRDPWFAQKLLKLLVEANFPPHRLDIEITETCLHENVGVVRTLITSLKNQGIRISLDDFGTGYSSLAQLRTLPFDQIKIDRFFVSNLGKNKDSATIVEAISSLGKGMDLPITAEGIESPEVLDELRKFGKFKGQGFLYGQPGDASEIRAMLADRQLLQQQAEGHHHHHH”, the “soluble on expression in E. coli” value is “soluble”.

As for “MPKIDLIIFDCDGVLVDSEYLAAQIGSQLLKKIGYEISPEELSARYAGLIFPDILKKVEQETGKPTSAHLIDQMSDLFRAQIKTELRAIDGIKEAIEAIQSHYPYCICSNARSTEIKEMLTIVDLYDFFDNKDKIFSAPEVGTKKTKPAPDVFLFAAQQLRVKPKNTIVIEDSIHGVHAATAAGMRVIGFTGGSHSYLGHSNALVEAGAETAIAKHAHLLEVLEAMAVWQDLP”, the “soluble on expression in E. coli” value is “not soluble”.

As for “AAQEKVVKLKIVQTSDVHGNYYPYNFITRKDWQGSLARIYAFVEKEREQYKENLILLDNGDILQGQPTAYYYNYIDTVSPHLCAEMMNYMKYDAGNMGNHDVETGRAVFDRWINTCDFPVLGANIIDISTGEPHLPPYKVMERDGVKIVILGMITPAIPAWLSENLWKGLRFDDMEETARKWMKIIREKENPDLMIGLFHAGQEAFKMSGKYNENASLSVAKNVPGFDIVLMGHDHARECKKVMNVAGDSVLVIDPASNGIVLSNIDVTLKLKDGKVRSKDIKGVLTETKDYGISEDFMKNFAPQYDTVRNFVSK”, the “soluble on expression in E. coli” value is “not soluble”.

Consider “MSLRTYENVVILTDLTAGTTYYYKIVSTNSTVDHFLSPRVPGDETPFSINAVIDLGVYGEDGYTIKGDKSKKDTIPTINPALNHTTIGRLASTVDDYEFVIHPGDFAYADDWFLSLDNLLDGENAYQAILENFYEQLAPISGRKPYMASPGNHEAACQEIPFTTGLCPDGQKNFTDFMHRFGRTMPSSFTSVSTNDSAKVFANQARELAQPPFWYSFEYGMAHIVMINTETDFEDAPSGKGGSAHLNGGPFGAKNQQLEFLEADLASVDRDVTPWVIVAGHRPWYTAGSACTPCQEAFEDLLYTYGVDLGVFGHVHNAQRFLPVYNSVADPNGMQDPKAPMYIVAGGAGNIEGLSSITKQLDFTEFANDEDYTYSTIRFLDRNHLQVDFINSVSGEVLDTSTLYKSHEARFVREGHHHHHH”, for which the “soluble on expression in E. coli” value was “not soluble”.
